Laboratory results as given in US20260201015A1 (published 2026).
Each block holds one binder with its values, some of them ahead of it.

Assays:
[1] = target: T1, parathyroid hormone (PTH) peptide (UniProt P01270 32-65, TAMRA label in FP assays (PTH-TAMRA), site not stated; biotinylated in yeast display); assay: Split NanoBiT titration
T1 peptide: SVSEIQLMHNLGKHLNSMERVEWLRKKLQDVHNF

secretin (SCT) = target: T2, secretin (SCT) (UniProt P09683 28-54, fluorescently labeled (FAM or TAMRA) in FP assays, site not stated); assay: FP
T2 peptide: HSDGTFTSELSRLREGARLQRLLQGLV

glucagon (GCG) = glucagon (GCG) (UniProt P01275 53-81, fluorescently labeled (FAM or TAMRA) in FP assays, site not stated; biotinylated in yeast display); assay: FP
Sequence of glucagon (GCG) (P01275 53-81): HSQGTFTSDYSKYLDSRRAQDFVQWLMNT

Kd [1]: > 1000 nM
B1: parametrically designed PTH binder (SEQ ID NO: 1) (designed binder)
chain: SQELIEELIKLAKELAEIKDEEERRKIKRELERLAEELKEAPASSLLRALALLVIALALIQAAESEEERERARELLERLEELLRELEKQITDERFKEILRELEELAKELKKQL

Kd (secretin (SCT)): 1.42 nM
Kd (glucagon (GCG)): < 0.5 nM
B2: GCG_C09 (RF Diffusion/Partial diffusion), partially diffused GCG binder, SEQ ID NO: 8 (designed binder)
chain: SMEKLAEIMQEIIEAYQEVKDAFFKFIKAVHEGAPEEELKKYLEKMKEALEKMKELLERLEKEAKKVIEENKDKKLELKVLLMLRLAYLLLKVSIELTKIAAEKLGDKELVEELEKESKEVEKKIKELEERIKKLLEEVDDEELKEAYKEVEEMEKEAEKFLEKMRKV
